Laboratory results: IntAct's records for PubMed 16511572

B1: Protein Mdm4 (Homo sapiens), O15151 (parent)
chain: MTSFSTSAQCSTSDSACRISPGQINQVRPKLPLLKILHAAGAQGEMFTVKEVMHYLGQYIMVKQLYDQQEQHMVYCGGDLLGELLGRQSFSVKDPSPLYDMLRKNLVTLATATTDAAQTLALAQDHSMDIPSQDQLKQSAEESSTSRKRTTEDDIPTLPTSEHKCIHSREDEDLIENLAQDETSRLDLGFEEWDVAGLPWWFLGNLRSNYTPRSNGSTDLQTNQDVGTAIVSDTTDDLWFLNESVSEQLGVGIKVEAADTEQTSEEVGKVSDKKVIEVGKNDDLEDSKSLSDDTDVEVTSEDEWQCTECKKFNSPSKRYCFRCWALRKDWYSDCSKLTHSLSTSDITAIPEKENEGNDVPDCRRTISAPVVRPKDAYIKKENSKLFDPCNSVEFLDLAHSSESQETISSMGEQLDNLSEQRTDTENMEDCQNLLKPCSLCEKRPRDGNIIHGRTGHLVTCFHCARRLKKAGASCPICKKEIQLVIKVFIA
partner: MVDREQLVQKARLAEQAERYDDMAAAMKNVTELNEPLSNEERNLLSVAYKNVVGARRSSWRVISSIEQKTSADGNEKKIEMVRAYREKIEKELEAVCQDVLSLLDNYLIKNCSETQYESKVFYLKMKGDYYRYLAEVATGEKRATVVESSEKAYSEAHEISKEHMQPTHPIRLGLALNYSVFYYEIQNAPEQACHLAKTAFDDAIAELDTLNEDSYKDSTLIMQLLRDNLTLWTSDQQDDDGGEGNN
B2: 14-3-3 protein gamma (Homo sapiens), P61981 (parent)
chain: B1 partner
partner: B1 chain

Variants of: B1
Conditions: with 1433g_human YWHAG

effect of a mutation on the interaction | Variant
disrupting interaction | P369G
disrupting interaction | MTSFSTSAQCSTSDSACRISPGQINQVRPKLPLLKILHAAGAQGEMFTVKEVMHYLGQYIMVKQLYDQQEQHMVYCGGDLLGELLGRQSFSVKDPSPLYDMLRKNLVTLATATTDAAQTLALAQDHSMDIPSQDQLKQSAEESSTSRKRTTEDDIPTLPTSEHKCIHSREDEDLIENLAQDETSRLDLGFEEWDVAGLPWWFLGNLRSNYTPRSNGSTDLQTNQDVGTAIVSDTTDDLWFLNESVSEQLGVGIKVEAADTEQTSEEVGKVSDKKVIEVGKNDDLEDSKSLSDDTDVEVTSEDEWQCTECKKFNSPSKRYCFRCWALRKDWYSDCSKLTHSLSTSDITAIPEKENEGNDVPDCRRTIGAPVVRPKDAYIKKENSKLFDPCNSVEFLDLAHSSESQETISSMGEQLDNLSEQRTDTENMEDCQNLLKPCSLCEKRPRDGNIIHGRTGHLVTCFHCARRLKKAGASCPICKKEIQLVIKVFIA [S367G]

Variants of: B2
Conditions: with mdm4_human MDM4, O15151

effect of a mutation on the interaction | Variant
disrupting interaction | MVDREQLVQKARLAEQAERYDDMAAAMKNVTELNEPLSNEERNLLSVAYENVVGARRSSWRVISSIEQKTSADGNEKKIEMVRAYREKIEKELEAVCQDVLSLLDNYLIKNCSETQYESKVFYLKMKGDYYRYLAEVATGEKRATVVESSEKAYSEAHEISKEHMQPTHPIRLGLALNYSVFYYEIQNAPEQACHLAKTAFDDAIAELDTLNEDSYKDSTLIMQLLRDNLTLWTSDQQDDDGGEGNN [K50E]
